The values that follow are results of earlier work, collected in PMC10935721.

The series relates to Tyr32. Particulars: reduced (non-radical) X32.

For “α3Y (de novo three-helix bundle with Tyr32) (synthetic construct (de novo designed))”, the pKa is recorded as 11.3 (±0.1).

As a reminder, the pKa is the pH at which an ionisable group is half protonated.
